Assays:
[1] = target: 3XFLAG-TBP T114A (p3XFLAG-cmv10 construct) (human, UniProt P20226 1-339, T114A); assay: co-IP
ChIP-qPCR ± TMG = conditions: glycan lost; control: TBP3X-WT cells
[2] = IP and anti-phosphothreonine blot; conditions: glycan lost; control: TBP3X-WT cells
[3] = TBP:BTAF1 interaction under LG, HG, TMG, Ac4SGlcNAc; conditions: glycan lost; control: TBP3X-WT cells

| fold amount of BTAF1 co-IPed against TBP^WT [1] [fold] | Binder | other: TMG-induced rise in promoter occupancy (ChIP-qPCR ± TMG) | other: TBP phosphorylation [2] | other: response of BTAF1 binding to glucose/TMG/Ac4SGlcNAc [3] |
| --- | --- | --- | --- | --- |
| ~3 | B-TFIID TATA-Box Binding Protein Associated Factor 1 (BTAF1), endogenous human (natural protein, UniProt O14981 1-1849, looked up) MAVSRLDRLFILLDTGTTPVTRKAAAQQLGEVVKLHPHELNNLLSKVLIYLRSANWDTRIAAGQAVEAIVKNVPEWNPVPRTRQEPTSESSMEDSPTTERLNFDRFDICRLLQHGASLLGSAGAEFEVQDEKSGEVDPKERIARQRKLLQKKLGLNMGEAIGMSTEELFNDEDLDYTPTSASFVNKQPTLQAAELIDSEFRAGMSNRQKNKAKRMAKLFAKQRSRDAVETNEKSNDSTDGEPEEKRRKIANVVINQSANDSKVLIDNIPDSSSLIEETNEWPLESFCEELCNDLFNPSWEVRHGAGTGLREILKAHGKSGGKMGDSTLEEMIQQHQEWLEDLVIRLLCVFALDRFGDFVSDEVVAPVRETCAQTLGVVLKHMNETGVHKTVDVLLKLLTQEQWEVRHGGLLGIKYALAVRQDVINTLLPKVLTRIIEGLQDLDDDVRAVAAASLVPVVESLVYLQTQKVPFIINTLWDALLELDDLTASTNSIMTLLSSLLTYPQVQQCSIQQSLTVLVPRVWPFLHHTISSVRRAALETLFTLLSTQDQNSSSWLIPILPDMLRHIFQFCVLESSQEILDLIHKVWMELLSKASVQYVVAAACPWMGAWLCLMMQPSHLPIDLNMLLEVKARAKEKTGGKVRQGQSQNKEVLQEYIAGADTIMEDPATRDFVVMRARMMAAKLLGALCCCICDPGVNVVTQEIKPAESLGQLLLFHLNSKSALQRISVALVICEWAALQKECKAVTLAVQPRLLDILSEHLYYDEIAVPFTRMQNECKQLISSLADVHIEVGNRVNNNVLTIDQASDLVTTVFNEATSSFDLNPQVLQQLDSKRQQVQMTVTETNQEWQVLQLRVHTFAACAVVSLQQLPEKLNPIIKPLMETIKKEENTLVQNYAAQCIAKLLQQCTTRTPCPNSKIIKNLCSSLCVDPYLTPCVTCPVPTQSGQENSKGSTSEKDGMHHTVTKHRGIITLYRHQKAAFAITSRRGPTPKAVKAQIADLPAGSSGNILVELDEAQKPYLVQRRGAEFALTTIVKHFGGEMAVKLPHLWDAMVGPLRNTIDINNFDGKSLLDKGDSPAQELVNSLQVFETAAASMDSELHPLLVQHLPHLYMCLQYPSTAVRHMAARCVGVMSKIATMETMNIFLEKVLPWLGAIDDSVKQEGAIEALACVMEQLDVGIVPYIVLLVVPVLGRMSDQTDSVRFMATQCFATLIRLMPLEAGIPDPPNMSAELIQLKAKERHFLEQLLDGKKLENYKIPVPINAELRKYQQDGVNWLAFLNKYKLHGILCDDMGLGKTLQSICILAGDHCHRAQEYARSKLAECMPLPSLVVCPPTLTGHWVDEVGKFCSREYLNPLHYTGPPTERIRLQHQVKRHNLIVASYDVVRNDIDFFRNIKFNYCILDEGHVIKNGKTKLSKAVKQLTANYRIILSGTPIQNNVLELWSLFDFLMPGFLGTERQFAARYGKPILASRDARSSSREQEAGVLAMDALHRQVLPFLLRRMKEDVLQDLPPKIIQDYYCTLSPLQVQLYEDFAKSRAKCDVDETVSSATLSEETEKPKLKATGHVFQALQYLRKLCNHPALVLTPQHPEFKTTAEKLAVQNSSLHDIQHAPKLSALKQLLLDCGLGNGSTSESGTESVVAQHRILIFCQLKSMLDIVEHDLLKPHLPSVTYLRLDGSIPPGQRHSIVSRFNNDPSIDVLLLTTHVGGLGLNLTGADTVVFVEHDWNPMRDLQAMDRAHRIGQKRVVNVYRLITRGTLEEKIMGLQKFKMNIANTVISQENSSLQSMGTDQLLDLFTLDKDGKAEKADTSTSGKASMKSILENLSDLWDQEQYDSEYSLENFMHSLK |  |  |  |
|  | TATA-box binding protein (TBP): TBP3X-T114A (protein) parent chain: MDQNNSLPPYAQGLASPQGAMTPGIPIFSPMMPYGTGLTPQPIQNTNSLSILEEQQRQQQQQQQQQQQQQQQQQQQQQQQQQQQQQQQQQQQQQQAVAAAAVQQSTSQQATQGTSGQAPQLFHSQTLTTAPLPGTTPLYPSPMTPMTPITPATPASESSGIVPQLQNIVSTVNLGCKLDLKTIALRARNAEYNPKRFAAVIMRIREPRTTALIFSSGKMVCTGAKSEEQSRLAARKYARVVQKLGFPAKFLDFKIQNMVGSCDVKFPIRLEGLVLTHQQFSSYEPELFPGLIYRMIKPRIVLLIFVSGKVVLTGAKVRAEIYEAFENIYPILKGFRKTT | abolishes | no change | abolishes |

From article PMC7061307 (Molecular cell, 2019)
